Reference: US20260258153A1 (WISTAR INSTITUTE OF ANATOMY AND BIOLOGY, published 2026)

Target: carbonic anhydrase 9 (CA9) (UniProt Q16790 38-459)
Assay: cell-based or functional assay

B1: BTE (canonical CA9 x CD3 bispecific T cell engager; G37_DBiTE, Non-HLV) (bispecific antibody)
chain: QSVLTQPPSVSGAPGQRVTISCTGSSSNIGAGYDVHWYQHLPGTAPKLLIYGNSNRPSGVPDRFSGSKSGTSASLAITGLQAEDETDYFCQSYDSSLSAWVFGGGTKVTVLGGGGSGGGGSGGGGSQVQLVQSGGGVVQPGGSLRLSCAASGFPFSSYAMSWVRQAPGKGLEWVSAISANGGTTYYADSVKGRFTISRDNSKNTLYLQMNSLRAEDTAVYYCANNGNYRGAFDIWGQGTMVTVSSGGGGSEVQLVESGGGLVQPGGSLRLSCAASGYSFTGYTMNWVRQAPGKGLEWVALINPYKGVSTYNQKFKDRFTISVDKSKNTAYLQMNSLRAEDTAVYYCARSGYYGDSDWYFDVWGQGTLVTVSSGGGGSGGGGSGGGGSDIQMTQSPSSLSASVGDRVTITCRASQDIRNYLNWYQQKPGKAPKLLIYYTSRLESGVPSRFSGSGSGTDYTLTISSLQPEDFATYYCQQGNTLPWTFGQGTKVEIKSSHHHHHH
EC50 (pM), cell line 293T-CA9: 13.2 pM | EC50 (pM), cell line 786-O: 82.5 pM | EC50 (pM), cell line A-498: 21.4 pM | EC50 (pM), cell line ACHN-CA9: 38.7 pM | EC50 (pM), cell line SKRC-52: 1.5 pM
